In publication PMC4210639 (Neuron, 2014):

Biological target: T1, FLRT3^LRR (leucine-rich repeat domain of mouse FLRT3) (mouse, UniProt Q8BGT1 29-359)
T1 sequence: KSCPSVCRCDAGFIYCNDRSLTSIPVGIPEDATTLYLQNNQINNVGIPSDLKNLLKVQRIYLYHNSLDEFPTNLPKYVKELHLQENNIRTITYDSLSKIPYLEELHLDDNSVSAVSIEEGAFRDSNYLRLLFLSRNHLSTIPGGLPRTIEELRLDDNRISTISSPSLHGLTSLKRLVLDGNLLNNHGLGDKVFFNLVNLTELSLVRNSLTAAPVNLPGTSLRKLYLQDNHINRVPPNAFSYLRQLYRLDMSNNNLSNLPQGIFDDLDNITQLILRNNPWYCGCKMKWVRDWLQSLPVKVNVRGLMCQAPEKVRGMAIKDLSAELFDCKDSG
Test: SPR

binding result: binds
B1: Unc5A^ecto (human Unc5A ectodomain) (domain or fragment)
chain: not shown
